Assay results: publication PMC12098869, “An mRNA-display derived cyclic peptide scaffold reveals the substrate binding interactions of an N-terminal cysteine oxidase” (Nature Communications, 2025)
“And” between values parts separate entries of the source, which are not always exact repeats. Equal entries are not always repeated. Where a SMILES comes first, the peptide text is derived from it. Bridges are numbered along the chain shown (N, C = ends). Where no end group is shown, it is not given here. Side-chain parts run from the residue outwards. [ ]: non-standard residue; d: D form. Orn = NCCC[C@H](N)C(=O)O; Dap = NC[C@H](N)C(=O)O

Assays:
human ADO = molecular target: T1, human ADO (Homo sapiens, UniProt Q96SZ5); assay: SPR single-cycle kinetic (SCK) binding of cyclic peptides to ADO; settings: for KD: Supplementary Fig. 4 series
T1 construct: Full-length human ADO (Uniprot ID: Q96SZ5) was cloned; made in house; host or cells: E. coli Rosetta2(DE3)
T1 sequence (Q96SZ5 1-270): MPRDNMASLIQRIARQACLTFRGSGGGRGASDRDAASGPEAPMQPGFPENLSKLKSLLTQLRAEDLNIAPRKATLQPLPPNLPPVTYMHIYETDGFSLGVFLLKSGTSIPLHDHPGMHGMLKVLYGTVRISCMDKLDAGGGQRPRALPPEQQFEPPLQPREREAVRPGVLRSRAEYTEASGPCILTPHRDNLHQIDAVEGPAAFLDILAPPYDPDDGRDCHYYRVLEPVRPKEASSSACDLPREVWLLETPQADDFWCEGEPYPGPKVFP
Text: After six cycles, clear enrichment of several CPs was observed by next-generation sequencing. The most enriched CPs (CP1-8, numbered according to their percentage enrichment in the final selection round) were selected for subsequent analysis (Table 1). CP1, 5, 6 and 7 are related in sequence, while CP2, 3, 4, and 8 are unique compositions (Fig. 1b). These CPs were subsequently produced by solid-phase peptide synthesis (SPPS) and analysed by surface plasmon resonance (SPR) using single cycle kinetic (SCK) analysis to confirm and quantify binding to ADO. ADO could interact with each CP to varying degrees (Supplementary Fig. 4, Table 1, Fig. 1dleft).
SPR measurements were made using a Biacore T200 (Cytiva) instrument and data were analysed using the Biacore Insight Evaluation Software. Biotinylated-ADO was immobilised on a Biotin CAP chip (Cytiva) with a target density of ∼2500–3000 RU and peptide/protein substrates were injected over the chip. Experiments were conducted at 4 °C using both multi-cycle (fit using the equilibrium steady state affinity 1:1 binding model) and single-cycle kinetics mode (fit using a 1:1 binding model). A buffer comprising 20 mM HEPES pH 7.5, 500 mM NaCl, 10 mM DTT, and 0.1% (v/v) tween-20 was used as the running buffer at a flow rate of 50 μL/minute.

[1] = molecular target: T2, 2-aminoethanethiol dioxygenase (ADO), full-length human, N-terminally His-tagged and biotinylated … (human, UniProt Q96SZ5 1-270, biotin (biotinylated during expression, 0.2 mM biotin added)); assay: cell-based or functional assay
T2 sequence (looked up): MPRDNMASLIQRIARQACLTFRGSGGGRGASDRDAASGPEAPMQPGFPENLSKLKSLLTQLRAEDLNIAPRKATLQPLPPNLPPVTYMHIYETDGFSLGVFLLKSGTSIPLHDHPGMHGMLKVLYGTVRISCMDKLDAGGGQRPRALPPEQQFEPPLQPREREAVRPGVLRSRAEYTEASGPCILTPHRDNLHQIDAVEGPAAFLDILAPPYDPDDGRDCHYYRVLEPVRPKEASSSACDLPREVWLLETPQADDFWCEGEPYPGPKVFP

[2] = molecular target: T2, 2-aminoethanethiol dioxygenase (ADO), …; assay: SPR; single cycle kinetic (SCK) analysis, 1:1 binding model; biotinylated ADO immobilised on a Biotin CAP chip (~2500-3000 RU), cyclic peptides injected; 4 °C; 20 mM HEPES pH 7.5, 500 mM NaCl, 10 mM DTT, 0.1% tween-20; 50 μL/minute; settings: both partners purified
[3] = molecular target: T3, 2-aminoethanethiol dioxygenase (ADO), full-length human, N-terminally His-tagged and biotinylated … (human, UniProt Q96SZ5 1-270, biotin (biotinylated during expression, 0.2 mM biotin added)); assay: SPR; single-cycle kinetics (1:1 binding model); biotinylated ADO immobilised on a Biotin CAP chip (~2500-3000 RU), cyclic peptide injected; Biacore T200, 4 °C; 20 mM HEPES pH 7.5, 500 mM NaCl, 10 mM DTT, 0.1% tween-20; 50 µL/minute; each cell is one of three independent measurements; settings: both partners purified
T3 construct: 2-aminoethanethiol dioxygenase (ADO), human, UniProt Q96SZ5, full length; Immobilised through its biotin on a Biotin CAP chip for SPR; also called wild type ADO; Biotinylated-ADO; source: E. coli Rosetta2(DE3), purified (Ni-NTA, SEC); not shown: biotinylation tag (from the vector pQE80L-Navi), N-terminal, kept
T3 sequence (looked up): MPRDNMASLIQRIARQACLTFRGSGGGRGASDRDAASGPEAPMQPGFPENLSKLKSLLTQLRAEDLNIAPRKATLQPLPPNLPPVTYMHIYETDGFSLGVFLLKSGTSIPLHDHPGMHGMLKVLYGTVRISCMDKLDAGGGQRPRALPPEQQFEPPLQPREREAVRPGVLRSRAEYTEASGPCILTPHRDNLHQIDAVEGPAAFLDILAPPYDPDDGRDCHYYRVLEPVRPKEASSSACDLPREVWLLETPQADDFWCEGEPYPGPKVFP
How it was run: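 Full-length human ADO carrying a His tag and a biotin label was produced in E. coli and purified first by nickel affinity, then by gel filtration. The protein was loaded onto a Biotin CAP chip in a Biacore T200 to roughly 2500–3000 RU, after which cyclic peptides were passed across the surface at 50 µL/minute and 4 °C in HEPES pH 7.5 buffer containing 500 mM NaCl, DTT and tween-20. Each Kd was obtained by fitting single-cycle kinetic sensorgrams to a 1:1 binding model, based on three independent measurements.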

[4] = Fig. 3c series, geometric mean of a minimum of three independent measurements (n = 3)
[5] = 1:1 binding model, 4 °C, geometric mean of a minimum of three independent measurements (n = 3) with standard error

CC[C@H](C)[C@@H]1NC(=O)[C@H](CCCNC(=N)N)NC(=O)[C@H](Cc2ccc(O)cc2)NC(=O)CSC[C@@H](C(=O)N2CCC[C@H]2C(=O)N[C@@H](CS)C(N)=O)NC(=O)[C@H](CC(C)C)NC(=O)[C@H](C(C)C)NC(=O)[C@H](Cc2c[nH]c3ccccc23)NC(=O)[C@H](CO)NC(=O)[C@H](CCCNC(=N)N)NC(=O)[C@H](Cc2ccccc2)NC(=O)[C@H](C(C)C)NC(=O)[C@H](CCCNC(=N)N)NC(=O)[C@H]([C@@H](C)CC)NC1=O [CP2] ({CH2CO}-YRIIRVFRSWVLCPC-NH2; thioether N-13; N-terminus and C-terminus assumed)
KD (human ADO; replicate 1): 6280 nM | KD (human ADO; replicate 2): 5190 nM | KD (human ADO; replicate 3): 4690 nM

CC[C@H](C)[C@@H]1NC(=O)[C@H](Cc2ccc(O)cc2)NC(=O)CSC[C@@H](C(N)=O)NC(=O)[C@H](CCC(N)=O)NC(=O)[C@H](CCCNC(=N)N)NC(=O)[C@H](Cc2c[nH]cn2)NC(=O)[C@H](CO)NC(=O)CNC(=O)[C@H](CCCNC(=O)[C@@H](N)CO)NC(=O)[C@H](Cc2c[nH]c3ccccc23)NC(=O)[C@H](Cc2ccccc2)NC(=O)[C@H]([C@@H](C)O)NC(=O)[C@H](CCCCN)NC(=O)[C@H](C(C)C)NC1=O [CP6-L8O-Ser] ({CH2CO}-YIVKTFW[Orn](Ser)GSHRQC-NH2; thioether N-14)
Kd (human ADO; [4]): 140 ± 120 nM

CC(C)C[C@@H]1NC(=O)[C@H](Cc2c[nH]c3ccccc23)NC(=O)[C@H]([C@@H](C)O)NC(=O)[C@H]([C@@H](C)O)NC(=O)[C@H](CO)NC(=O)[C@H](C(C)C)NC(=O)[C@H]([C@@H](C)O)NC(=O)[C@H](Cc2ccc(O)cc2)NC(=O)CSC[C@@H](C(N)=O)NC(=O)[C@H](CCC(N)=O)NC(=O)[C@H](CCCNC(=N)N)NC(=O)[C@H](Cc2c[nH]cn2)NC(=O)[C@H]([C@@H](C)O)NC(=O)CNC1=O [CP1] ({CH2CO}-YTVSTTWLGTHRQC-NH2; thioether N-14)
Kd (human ADO; [5]): 35.4 ± 2.11 nM

CC[C@H](C)[C@@H]1NC(=O)[C@H](Cc2ccc(O)cc2)NC(=O)CSC[C@@H](C(N)=O)NC(=O)[C@H](CCC(N)=O)NC(=O)[C@H](CCCNC(=N)N)NC(=O)[C@H](Cc2c[nH]cn2)NC(=O)[C@H](CO)NC(=O)CNC(=O)[C@H](CCCCNC(=O)[C@@H](N)CS)NC(=O)[C@H](Cc2c[nH]c3ccccc23)NC(=O)[C@H](Cc2ccccc2)NC(=O)[C@H]([C@@H](C)O)NC(=O)[C@H](CCCCN)NC(=O)[C@H](C(C)C)NC1=O [CP6-L8K-Cys] ({CH2CO}-YIVKTFWK(Cys)GSHRQC-NH2; thioether N-14)
Kd (human ADO; Fig. 3c / Supplementary Fig. 15 series, replicate 3): 13.6 nM

CC[C@H](C)[C@@H]1NC(=O)[C@H](Cc2ccc(O)cc2)NC(=O)CSC[C@@H](C(N)=O)NC(=O)[C@H](CCC(N)=O)NC(=O)[C@H](CCCNC(=N)N)NC(=O)[C@H](Cc2c[nH]cn2)NC(=O)[C@H](CO)NC(=O)CNC(=O)[C@H](CCCCNC(=O)[C@@H](N)CO)NC(=O)[C@H](Cc2c[nH]c3ccccc23)NC(=O)[C@H](Cc2ccccc2)NC(=O)[C@H]([C@@H](C)O)NC(=O)[C@H](CCCCN)NC(=O)[C@H](C(C)C)NC1=O [CP6-L8K-Ser] ({CH2CO}-YIVKTFWK(Ser)GSHRQC-NH2; thioether N-14)
Kd (human ADO; [4]): 21 ± 4.9 nM

CC[C@H](C)[C@@H]1NC(=O)[C@H](Cc2ccc(O)cc2)NC(=O)CSC[C@@H](C(N)=O)NC(=O)[C@H](CCC(N)=O)NC(=O)[C@H](CCCNC(=N)N)NC(=O)[C@H](Cc2c[nH]cn2)NC(=O)[C@H](CO)NC(=O)CNC(=O)[C@H](CC(C)C)NC(=O)[C@H](Cc2c[nH]c3ccccc23)NC(=O)[C@H](Cc2ccccc2)NC(=O)[C@H]([C@@H](C)O)NC(=O)[C@H](CCCCN)NC(=O)[C@H](C(C)C)NC1=O [CP6] ({CH2CO}-YIVKTFWLGSHRQC-NH2; thioether N-14)
Kd (human ADO; [5]): 66.2 ± 0.86 nM | Kd (human ADO; [4]): 51 ± 0.25 nM

CC(C)C[C@@H]1NC(=O)[C@H](CCCNC(=N)N)NC(=O)CNC(=O)[C@H](CCCNC(=N)N)NC(=O)[C@H](CCCNC(=N)N)NC(=O)[C@@H]2CCCN2C(=O)[C@H](Cc2ccccc2)NC(=O)CNC(=O)[C@H](CCC(=O)O)NC(=O)[C@H](CC(N)=O)NC(=O)[C@H](CC(C)C)NC(=O)[C@H]([C@@H](C)O)NC(=O)[C@H](Cc2c[nH]c3ccccc23)NC(=O)[C@H](Cc2ccc(O)cc2)NC(=O)CSC[C@@H](C(N)=O)NC1=O [CP3] ({CH2CO}-YWTLNEGFPRRGRLC-NH2; thioether N-15; N-terminus and C-terminus assumed)
KD (human ADO; replicate 1): 13500 nM | KD (human ADO; replicate 2): 5000 nM | KD (human ADO; replicate 3): 6630 nM

B1: cyclic peptide CP2 (peptide)
peptide: {CH2CO}-YRIIRVFRSWVLCPC
modifications: thioether N-13
notes: cyclic peptide selected against ADO by RaPID mRNA display; source: synthetic peptide (solid-phase peptide synthesis)
IC50 of inhibition of ADO activity (oxidation of RGS5_(2-15), LCMS) [1]: > 50000 nM | Kd [2]: > 5000 nM

{CH2CO}-YIVKTFW[Dap]([Lys-Ser])GSHRQC (thioether N-14) [CP6-L8d-Lys-Ser]
Kd [3]: 461 nM and 530 nM and 472 nM

B2: cyclic peptide CP1 (peptide)
peptide: {CH2CO}-YTVSTTWLGTHRQC
modifications: thioether N-14
notes: cyclic peptide selected against ADO by RaPID mRNA display; Details of synthesis are in the supplementary methods; source: synthetic peptide (solid-phase peptide synthesis)
IC50 of inhibition of ADO activity (oxidation of RGS5_(2-15), LCMS) [1]: 1720 nM | Kd [2]: 35 nM

{CH2CO}-YIVKTFW[Dap]([Gly-Ser])GSHRQC (thioether N-14) [CP6-L8d-Gly-Ser]
Kd [3]: 154 nM and 144 nM and 145 nM

B3: cyclic peptide CP8 (peptide)
peptide: {CH2CO}-YTYRYPSILRVWARYGC
modifications: thioether N-17
notes: as for B1
IC50 of inhibition of ADO activity (oxidation of RGS5_(2-15), LCMS) [1]: 1730 nM | Kd [2]: 4.7 nM

B4: cyclic peptide CP5 (peptide)
peptide: {CH2CO}-YITITSWLGTLRQC
modifications: thioether N-14
notes: as for B1
IC50 of inhibition of ADO activity (oxidation of RGS5_(2-15), LCMS) [1]: 5680 nM | Kd [2]: 40 nM

B5: cyclic peptide CP4 (peptide)
peptide: {CH2CO}-YYYVLGTILVKRYRFC
modifications: thioether N-16
notes: as for B1
IC50 of inhibition of ADO activity (oxidation of RGS5_(2-15), LCMS) [1]: > 50000 nM

B6: cyclic peptide CP3 (peptide)
peptide: {CH2CO}-YWTLNEGFPRRGRLC
modifications: thioether N-15
notes: as for B1
Kd [2]: > 5000 nM

B7: cyclic peptide CP6 (peptide)
peptide: {CH2CO}-YIVKTFWLGSHRQC-NH2
modifications: thioether N-14
SMILES: CC[C@H](C)[C@@H]1NC(=O)[C@H](Cc2ccc(O)cc2)NC(=O)CSC[C@@H](C(N)=O)NC(=O)[C@H](CCC(N)=O)NC(=O)[C@H](CCCNC(=N)N)NC(=O)[C@H](Cc2c[nH]cn2)NC(=O)[C@H](CO)NC(=O)CNC(=O)[C@H](CC(C)C)NC(=O)[C@H](Cc2c[nH]c3ccccc23)NC(=O)[C@H](Cc2ccccc2)NC(=O)[C@H]([C@@H](C)O)NC(=O)[C@H](CCCCN)NC(=O)[C@H](C(C)C)NC1=O
notes: cyclic peptide selected against ADO by RaPID mRNA display; also called unmodified CP6; source: synthetic peptide (solid-phase peptide synthesis)
IC50 of inhibition of ADO activity (oxidation of RGS5_(2-15), LCMS) [1]: 950 nM | Kd [2]: 66 nM
